# Measurements: the supplement of paper PMC10065799, “High-throughput profiling of sequence recognition by tyrosine kinases and SH2 domains using bacterial peptide display” (eLife, 2023)
# Tested on: c-Src
# Assay: phosphorylation enrichment, bacterial display (enrichment ratio); higher = better substrate or ligand; peptides without Tyr show the background
# 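Wherever SH2 binding enrichment of the phosphorylated peptide, bacterial display is given: peptide library displayed on the E. coli surface as eCPX fusions, selected cells deep-sequenced, score is each peptide's frequency after selection divided by its frequency in the input.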
# 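Wherever phosphorylation enrichment, bacterial display is given: 11-residue human phosphosite peptides and single-mutation variants displayed on the E. coli surface, counted by deep sequencing, each peptide's frequency after selection divided by its frequency in the unselected input library; frequency after pTyr selection over input frequency; kinase dosed for 20-30% of maximal phosphorylation in three min.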
row,Sequence,phosphorylation enrichment
1,RSDSTYRMSAT [NHS_Y1532_S1531T],0.632
2,SQQTYYPVSNM [ABCD1_Y181_R182P],5.27
3,IRDENYGEGSS [ACO2_Y665_G661R],0.481
4,HNLFSYPTKFE [MYO3A_Y1396_H1400Y_YF],0.703
5,KLSFSYGRALQ [ALDOB_Y302],0.417
6,ALAQKYHGGGG [HBB_Y146_H144Q],0.404
7,QKTGDYFDLFG [PTPN11_Y62_N58K_YF],0.639
8,AKKMKYFEGVS [PRKDC_Y682_I680M],0.394
9,RNIQQYNSFVS [PRKAR1A_Y373],0.589
10,RRGMPYGGLGD [TGM1_Y312_R315L],0.398
11,FIRKDYEACKA [BBS4_Y48_YF],0.479
12,TESNNYIYTTL [FAM83B_Y637_K640T],7.09
13,WQQQSYLGSGI [CTNNB1_Y30_D32G],0.421
14,LQLLGYRPVFS [CHST6_Y358_YF],0.487
15,YISLIYTNYEA [GSTP1_Y109],4.21
16,DRLASYLDKMR [KRT17_Y98_V102M],0.459
17,NSVLVYRNGDP [DCDC2_Y22_K17N],0.591

row,Sequence,phosphorylation enrichment
1,WAFNLYDINKY [KCNIP3_Y174_D179Y],1.57
2,GPGLVYGVANK [FLNB_Y1833],2.83
3,KNNDGYTDYAE [MCFD2_Y135_I136T],0.383
4,GTGTAYLCGVK [ALPL_Y117_A114G],0.348
5,LEDPMYDIIRD [RP9_Y142_H137L],7.86
6,PFAEPYADFGG [APBA1_Y187_S184A_YF],2.43
7,VRFMEYETQVK [TARDBP_Y155_T153M],0.481
8,DDHFTYSRFPW [LY75_Y888_YF],4.98
9,MRALIYNSSTV [PLEKHA7_Y243_A248V],0.77
10,ILNANCMAKRL [GLDC_Y839_Y839C],0.378
11,QDRTFYESVRT [SPEN_Y633_YF],1.29
12,MACDRYVAICS [OR8D4_Y123],0.586
13,LFCLHYFHRTF [SRD5A2_Y91_V89L],0.879
14,RGNKEYKEEKR [LENG1_Y96_E97K],0.398
15,ASKEPYFVRCI [MYO1D_Y585_YF],0.611
16,SFTDPYAQPSL [KMT2D_Y2378_P2382S_YF],0.447

# Molecular target: Grb2 SH2 (UniProt P62993)
# Assay: SH2 binding enrichment of the phosphorylated peptide, bacterial display (enrichment ratio); higher = better substrate or ligand; peptides without Tyr show the background
row,Sequence,SH2 binding enrichment
1,RSDSTYRMSAT [NHS_Y1532_S1531T],0.769
2,SQQTYYPVSNM [ABCD1_Y181_R182P],0.864
3,HNLFSYPTKFE [MYO3A_Y1396_H1400Y_YF],0.706
4,QKTGDYFDLFG [PTPN11_Y62_N58K_YF],1.02
5,RNIQQYNSFVS [PRKAR1A_Y373],0.782
6,FIRKDYEACKA [BBS4_Y48_YF],1.07
7,TESNNYIYTTL [FAM83B_Y637_K640T],0.752
8,WQQQSYLGSGI [CTNNB1_Y30_D32G],0.858
9,LQLLGYRPVFS [CHST6_Y358_YF],0.806
10,DRLASYLDKMR [KRT17_Y98_V102M],1.03
11,NSVLVYRNGDP [DCDC2_Y22_K17N],0.773
12,WAFNLYDINKY [KCNIP3_Y174_D179Y],0.906
13,KNNDGYTDYAE [MCFD2_Y135_I136T],0.766
14,PFAEPYADFGG [APBA1_Y187_S184A_YF],0.742
15,VRFMEYETQVK [TARDBP_Y155_T153M],0.888
16,DDHFTYSRFPW [LY75_Y888_YF],0.833
17,MACDRYVAICS [OR8D4_Y123],0.743
18,LFCLHYFHRTF [SRD5A2_Y91_V89L],1.48
19,RGNKEYKEEKR [LENG1_Y96_E97K],1.25
20,ASKEPYFVRCI [MYO1D_Y585_YF],0.904
21,SFTDPYAQPSL [KMT2D_Y2378_P2382S_YF],0.777

# Other lines, results leading:
row,SH2 binding enrichment,Sequence
1,0.685,IRDENYGEGSS [ACO2_Y665_G661R]
2,1.04,KLSFSYGRALQ [ALDOB_Y302]
3,0.782,ALAQKYHGGGG [HBB_Y146_H144Q]
4,0.725,AKKMKYFEGVS [PRKDC_Y682_I680M]
5,0.712,RRGMPYGGLGD [TGM1_Y312_R315L]
6,1.24,YISLIYTNYEA [GSTP1_Y109]
7,0.732,GPGLVYGVANK [FLNB_Y1833]
8,0.902,GTGTAYLCGVK [ALPL_Y117_A114G]
9,0.863,LEDPMYDIIRD [RP9_Y142_H137L]
10,0.674,MRALIYNSSTV [PLEKHA7_Y243_A248V]
11,0.802,ILNANCMAKRL [GLDC_Y839_Y839C]
12,0.816,QDRTFYESVRT [SPEN_Y633_YF]

# Molecular target: SHP2-C SH2
# Assay: as above
row,Sequence,SH2 binding enrichment
1,RSDSTYRMSAT [NHS_Y1532_S1531T],0.472
2,SQQTYYPVSNM [ABCD1_Y181_R182P],0.534
3,HNLFSYPTKFE [MYO3A_Y1396_H1400Y_YF],1.56
4,QKTGDYFDLFG [PTPN11_Y62_N58K_YF],0.854
5,RNIQQYNSFVS [PRKAR1A_Y373],0.683
6,FIRKDYEACKA [BBS4_Y48_YF],0.731
7,TESNNYIYTTL [FAM83B_Y637_K640T],0.8
8,WQQQSYLGSGI [CTNNB1_Y30_D32G],0.664
9,LQLLGYRPVFS [CHST6_Y358_YF],0.626
10,DRLASYLDKMR [KRT17_Y98_V102M],0.529
11,NSVLVYRNGDP [DCDC2_Y22_K17N],0.614
12,WAFNLYDINKY [KCNIP3_Y174_D179Y],0.803
13,KNNDGYTDYAE [MCFD2_Y135_I136T],0.588
14,PFAEPYADFGG [APBA1_Y187_S184A_YF],0.682
15,VRFMEYETQVK [TARDBP_Y155_T153M],0.958
16,DDHFTYSRFPW [LY75_Y888_YF],0.64
17,MACDRYVAICS [OR8D4_Y123],3.31
18,LFCLHYFHRTF [SRD5A2_Y91_V89L],1.62
19,RGNKEYKEEKR [LENG1_Y96_E97K],1.42
20,ASKEPYFVRCI [MYO1D_Y585_YF],0.448
21,SFTDPYAQPSL [KMT2D_Y2378_P2382S_YF],0.759

# The next lines start with the values.
row,SH2 binding enrichment,Sequence
1,1.01,IRDENYGEGSS [ACO2_Y665_G661R]
2,0.955,KLSFSYGRALQ [ALDOB_Y302]
3,0.743,ALAQKYHGGGG [HBB_Y146_H144Q]
4,0.539,AKKMKYFEGVS [PRKDC_Y682_I680M]
5,0.501,RRGMPYGGLGD [TGM1_Y312_R315L]
6,1.53,YISLIYTNYEA [GSTP1_Y109]
7,0.643,GPGLVYGVANK [FLNB_Y1833]
8,0.679,GTGTAYLCGVK [ALPL_Y117_A114G]
9,0.475,LEDPMYDIIRD [RP9_Y142_H137L]
10,0.605,MRALIYNSSTV [PLEKHA7_Y243_A248V]
11,0.727,ILNANCMAKRL [GLDC_Y839_Y839C]
12,2.39,QDRTFYESVRT [SPEN_Y633_YF]

# Molecular target: c-Src SH2
# Assay: as above
row,Sequence,SH2 binding enrichment
1,RSDSTYRMSAT [NHS_Y1532_S1531T],0.341
2,SQQTYYPVSNM [ABCD1_Y181_R182P],0.532
3,HNLFSYPTKFE [MYO3A_Y1396_H1400Y_YF],0.503
4,QKTGDYFDLFG [PTPN11_Y62_N58K_YF],0.583
5,RNIQQYNSFVS [PRKAR1A_Y373],0.602
6,FIRKDYEACKA [BBS4_Y48_YF],0.792
7,TESNNYIYTTL [FAM83B_Y637_K640T],0.579
8,WQQQSYLGSGI [CTNNB1_Y30_D32G],0.499
9,LQLLGYRPVFS [CHST6_Y358_YF],0.68
10,DRLASYLDKMR [KRT17_Y98_V102M],0.488
11,NSVLVYRNGDP [DCDC2_Y22_K17N],0.401
12,WAFNLYDINKY [KCNIP3_Y174_D179Y],0.706
13,KNNDGYTDYAE [MCFD2_Y135_I136T],1.79
14,PFAEPYADFGG [APBA1_Y187_S184A_YF],0.676
15,VRFMEYETQVK [TARDBP_Y155_T153M],0.52
16,DDHFTYSRFPW [LY75_Y888_YF],0.418
17,MACDRYVAICS [OR8D4_Y123],7.31
18,LFCLHYFHRTF [SRD5A2_Y91_V89L],1.33
19,RGNKEYKEEKR [LENG1_Y96_E97K],0.975
20,ASKEPYFVRCI [MYO1D_Y585_YF],0.398
21,SFTDPYAQPSL [KMT2D_Y2378_P2382S_YF],2.12

# Results, then the sequence that gave them:
row,SH2 binding enrichment,Sequence
1,0.532,IRDENYGEGSS [ACO2_Y665_G661R]
2,0.592,KLSFSYGRALQ [ALDOB_Y302]
3,0.506,ALAQKYHGGGG [HBB_Y146_H144Q]
4,0.496,AKKMKYFEGVS [PRKDC_Y682_I680M]
5,0.33,RRGMPYGGLGD [TGM1_Y312_R315L]
6,1.75,YISLIYTNYEA [GSTP1_Y109]
7,0.551,GPGLVYGVANK [FLNB_Y1833]
8,0.543,GTGTAYLCGVK [ALPL_Y117_A114G]
9,1.67,LEDPMYDIIRD [RP9_Y142_H137L]
10,0.463,MRALIYNSSTV [PLEKHA7_Y243_A248V]
11,0.534,ILNANCMAKRL [GLDC_Y839_Y839C]
12,1.97,QDRTFYESVRT [SPEN_Y633_YF]
